Laboratory results taken from US20120178668A1.

Assays:
Assay in all cases: cell-based or functional assay
[1] = target: rat GC-A (rat) (UniProt P18910)
[2] = target: Natriuretic Peptide Receptor-A (NPR-A) of MDCK cells (canine (endogenous in MDCK cells))
[3] = target: NPR-A of HeLa cells (UniProt P16066)
[4] = target: T1, NPR-C (rat) (UniProt P41740)
T1 sequence: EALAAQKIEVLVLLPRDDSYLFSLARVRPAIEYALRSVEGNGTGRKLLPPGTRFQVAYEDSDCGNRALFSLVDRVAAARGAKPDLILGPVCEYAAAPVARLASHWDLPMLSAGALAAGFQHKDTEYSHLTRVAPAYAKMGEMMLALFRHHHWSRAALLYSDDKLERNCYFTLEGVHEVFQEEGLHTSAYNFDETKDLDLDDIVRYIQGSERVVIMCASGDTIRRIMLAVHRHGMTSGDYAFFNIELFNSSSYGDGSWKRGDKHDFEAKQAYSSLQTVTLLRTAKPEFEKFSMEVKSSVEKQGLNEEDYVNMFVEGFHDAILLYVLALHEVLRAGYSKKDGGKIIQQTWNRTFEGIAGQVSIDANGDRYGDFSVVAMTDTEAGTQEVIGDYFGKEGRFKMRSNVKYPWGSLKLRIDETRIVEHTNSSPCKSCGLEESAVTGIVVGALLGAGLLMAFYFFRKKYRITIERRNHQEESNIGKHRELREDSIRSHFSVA

rat GC-A (rat), sequence (P18910 29-1057): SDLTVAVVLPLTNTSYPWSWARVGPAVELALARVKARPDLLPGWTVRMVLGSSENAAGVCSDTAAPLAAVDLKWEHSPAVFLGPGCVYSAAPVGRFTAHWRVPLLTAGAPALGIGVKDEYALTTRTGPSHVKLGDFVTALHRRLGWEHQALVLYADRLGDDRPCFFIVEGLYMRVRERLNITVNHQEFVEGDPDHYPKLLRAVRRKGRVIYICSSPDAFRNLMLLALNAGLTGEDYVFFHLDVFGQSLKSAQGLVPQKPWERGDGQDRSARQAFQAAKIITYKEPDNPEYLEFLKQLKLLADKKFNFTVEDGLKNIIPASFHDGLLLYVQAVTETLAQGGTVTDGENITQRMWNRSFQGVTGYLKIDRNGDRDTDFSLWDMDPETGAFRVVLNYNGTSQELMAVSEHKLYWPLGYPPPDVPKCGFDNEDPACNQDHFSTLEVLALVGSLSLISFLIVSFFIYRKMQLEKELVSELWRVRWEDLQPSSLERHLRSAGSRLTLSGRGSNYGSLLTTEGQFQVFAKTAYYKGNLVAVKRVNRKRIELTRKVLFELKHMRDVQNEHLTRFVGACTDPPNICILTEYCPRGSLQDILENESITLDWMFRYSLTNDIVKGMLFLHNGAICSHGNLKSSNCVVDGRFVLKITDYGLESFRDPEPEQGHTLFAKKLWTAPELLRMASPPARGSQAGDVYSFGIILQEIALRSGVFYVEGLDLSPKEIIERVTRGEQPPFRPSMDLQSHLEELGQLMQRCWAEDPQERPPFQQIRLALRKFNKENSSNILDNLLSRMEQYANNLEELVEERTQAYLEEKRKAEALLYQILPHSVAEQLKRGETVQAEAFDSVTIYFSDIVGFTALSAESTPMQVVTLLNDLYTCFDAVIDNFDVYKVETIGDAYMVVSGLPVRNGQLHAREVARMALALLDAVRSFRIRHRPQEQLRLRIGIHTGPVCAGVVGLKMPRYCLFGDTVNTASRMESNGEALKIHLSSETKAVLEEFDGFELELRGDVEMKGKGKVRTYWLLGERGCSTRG
NPR-A of HeLa cells, sequence (P16066 33-1061 limits assumed): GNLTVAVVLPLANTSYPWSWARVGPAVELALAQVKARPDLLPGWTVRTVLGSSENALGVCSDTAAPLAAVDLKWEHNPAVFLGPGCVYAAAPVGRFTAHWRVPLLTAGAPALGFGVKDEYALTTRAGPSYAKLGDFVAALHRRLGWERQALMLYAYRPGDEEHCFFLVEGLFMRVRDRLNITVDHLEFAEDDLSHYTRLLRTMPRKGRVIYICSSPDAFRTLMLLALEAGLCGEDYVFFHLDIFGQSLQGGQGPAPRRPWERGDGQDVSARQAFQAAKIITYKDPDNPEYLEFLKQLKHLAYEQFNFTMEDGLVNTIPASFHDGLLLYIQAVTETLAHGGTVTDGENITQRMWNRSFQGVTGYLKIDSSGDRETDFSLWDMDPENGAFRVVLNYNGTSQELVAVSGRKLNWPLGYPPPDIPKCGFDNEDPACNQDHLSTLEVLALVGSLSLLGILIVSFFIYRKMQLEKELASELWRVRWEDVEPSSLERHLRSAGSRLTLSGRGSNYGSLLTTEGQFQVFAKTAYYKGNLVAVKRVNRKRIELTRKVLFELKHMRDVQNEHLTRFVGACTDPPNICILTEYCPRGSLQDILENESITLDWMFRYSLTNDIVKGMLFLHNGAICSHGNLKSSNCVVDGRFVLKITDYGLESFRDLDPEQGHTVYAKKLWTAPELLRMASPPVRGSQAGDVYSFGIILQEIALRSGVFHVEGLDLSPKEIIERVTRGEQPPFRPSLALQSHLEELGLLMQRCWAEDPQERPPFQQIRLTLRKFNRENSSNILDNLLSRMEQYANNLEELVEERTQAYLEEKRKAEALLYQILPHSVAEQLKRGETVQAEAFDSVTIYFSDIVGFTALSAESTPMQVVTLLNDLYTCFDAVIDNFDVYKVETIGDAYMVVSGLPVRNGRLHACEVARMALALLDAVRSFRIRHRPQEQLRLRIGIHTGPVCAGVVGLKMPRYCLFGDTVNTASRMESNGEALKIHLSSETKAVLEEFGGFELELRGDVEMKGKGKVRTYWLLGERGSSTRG

Substance | mean relaxation of denuded aortic rings, % of KCl response (% of KCl response) [1] | -Log10 EC50 (pEC50) of cGMP accumulation in MDCK cells [2] | EC50 of cGMP accumulation in MDCK cells [2] [nM] | -Log10EC50 (pEC50) of cGMP accumulation in HeLa cells [3] | EC50 of cGMP accumulation in HeLa cells [3] [nM] | relaxation of KCl pre-contracted endothelium-denuded rat aortic rings [1] [%] | relaxation of KCl pre-contracted endothelium-intact rat aortic rings [4] [%] | relaxation of denuded aortic rings [1] [%]
A7-TNPc (peptide) | 32.9 | 6.87 | 161 |  |  |  |  | 
CHA10-TNPc (peptide) | 64.2 | 7.84 | 14.4 |  |  |  |  | 
DNP (peptide) |  | 8.08 | 1850 | 9.42 | 0.392 | 100 | 100 | 
K7-TNPc (peptide) | 46.1 | 7.44 | 52.8 |  |  |  |  | 50
Lebetin 2 isoform α (peptide) |  | 7.64 | 26.8 |  |  |  |  | 
N7D-TNPc (peptide) |  | 7.58 | 26.2 |  |  |  |  | 
Nle29-TNPc (peptide) | 61 | 6.5 | 399 |  |  |  |  | 
P28-TNPc (peptide) | 52.6 | 6 | 1190 |  |  |  |  | 
PNP (peptide) |  | 6.66 | 347 |  |  |  |  | 
